The supplement of paper PMC10567573

B1: DCTD (parent)
chain: VKGCSMYVALFPCNECAKLIIQAG
B2: DYRK1B (parent)
chain: RFQDLVLRMLEYEPAARISPLGAL
B3: TRIM35 (parent)
chain: PTCPVCKDRASPADLRTNHTLNNL

Variants of: B1
Test: protein stability index of a GFP-peptide fusion (GPS, HEK-293T) (PSI 1-6); higher = more stable
Conditions: c terminus: a fixed tail appended
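Further: lentivirally expressed fusions sorted by FACS into six bins by GFP to DsRed ratio, PSI derived from sequencing read proportions per bin multiplied by bin number.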

Variant	protein stability index
Q22E	3.39
Q22P	2.51
L10P	3.06
L10A	2.48
L10S	2.2
L10Q	3.35
E15H	3.15
E15V	1.31
E15Q	2.62
E15W	4.68
E15N	2.17
E15G	3.97
E15I	3.06
K2S	3.47
K2F	2.27
K2T	3.52
K2D	2.7
K2P	2.71
K2V	4.19
K2W	3.93
K2R	2.54
K2H	2.42
I21L	1.76
I21S	2.24
I21D	3.77

Variant	protein stability index
I21W	2.72
I21V	2.14
I21T	1.83
I21E	1.31
M6H	2.21
M6Q	3.17
M6S	2.46
M6A	3.35
M6R	1.58
M6T	2.33
M6L	4.51
M6Y	2.7
M6I	3.81
M6N	2.2
M6E	2.2
M6D	1.7
M6C	2.7
F11S	2.83
F11C	3.11
F11D	4.47
F11Y	2.95
V8K	3.21
V8C	1.9
V8D	1.62
V8Y	3.08

Variant	protein stability index
V8S	2.3
V8P	2.22
V8A	2.64
V8Q	4.51
V8F	3.62
V8T	2.19
V8G	1.28
V8M	2.92
V8N	1.49
V8L	1.94
V8E	1.75
V8H	2.37
V8W	1.9
V1E	2.15
V1G	3.72
V1P	2.74
V1A	1.7
V1S	3.18
V1K	3.98
V1I	2.68
V1F	3.94
V1C	2.61
V1H	1.54
V1W	2.09
V1T	3.12

Variant	protein stability index
V1M	3.04
L19C	3.04
L19M	2.14
L19F	3.88
L19E	5.26
L19D	2.4
L19T	2.23
L19W	2.99
Y7W	2.92
Y7M	4.09
Y7C	2.84
Y7D	1.68
Y7F	2.5
Y7A	2.65
Y7I	3.49
Y7H	1.78
Y7T	1.91
Y7L	4.45
C13E	2.59
C13P	1.7
C16M	3.57
C16K	5.31
C16N	5.28
A9C	2.79
A9F	3.38

Variant	protein stability index
A9G	3.16
A9W	1.94
A9L	3.68
I20H	2.4
P12V	4.55
P12Q	1.81
P12G	2.57
P12R	2.9
P12T	2.86
P12N	3.57
N14F	2.99
N14K	1.92
N14P	2.04
N14M	2.9
A23G	2.31
A23P	2.84
A23E	2.7
A23L	5.75
G24E	2.98
G24V	2.98
G24T	3.17
G24N	2.86
G24K	1.76
G24A	2
G24H	3.84

Variant	protein stability index
C4F	2.92
C4I	2.89
C4R	3.18
C4A	2.19
C4E	1.71
C4V	2.86
C4T	2.88
C4L	2.78
C4P	1.75
C4S	3.15
S5M	1.55
S5P	3.12
S5K	2.44
S5D	2.2
S5F	2.58
S5W	3.75
S5E	3.58
S5H	3.63
S5C	1.73
S5N	2.91
S5Y	1.87
A17Q	3.48
A17N	3.32
A17I	3.08
A17T	3.02

Variant	protein stability index
A17H	3.41
G3V	2.23
G3K	2.53
G3D	3.8
G3Y	4.09
G3Q	3.85
G3P	4.11
G3W	4.42
G3N	3.06
G3M	4.03
G3C	2.07
G3I	3.94
G3T	3.43
G3A	2.9
G3F	2.27
K18W	1
K18H	2.55
K18I	1.99
K18L	1.05
K18V	4.91
K18C	4.05
K18S	4.23

Variants of: B2
Test: as above
Conditions: c terminus: a fixed tail appended

Variant	protein stability index
S19V	2.91
S19K	3.06
S19Q	1.55
S19L	4.05
S19R	2.38
S19P	2.61
S19Y	3.82
G22H	1.52
G22K	2.67
G22W	2.76
G22C	1.86
G22A	2.95
G22M	2.2
G22D	2.68
G22L	2.02
G22T	3.41
G22V	3.1
G22F	2.04
G22E	3.2
G22Y	1.71
G22I	2.49
L24P	1.6
L24N	1.82
L24T	4.33

Variant	protein stability index
L24H	2.36
L24D	2.29
L24F	1.95
L24Q	2.27
L24S	2.08
L24K	1.31
L24I	4.35
L24A	2.93
L24C	2.82
L24E	2.36
L24G	1.35
P20V	3.27
P20E	2.84
P20C	3.75
P20N	3.12
P20Q	2.29
P20Y	4.39
P20I	2.64
P20S	2.53
P20W	3.32
P20F	2.2
P20T	2.1
P20G	2.01
L21C	1.98

Variant	protein stability index
L21I	2.48
L21H	3.73
L21M	1.68
L21A	1.75
L21R	1.77
L21E	1.56
L21V	2.56
L21F	1.36
L21D	1.78
L21Y	2.98
L21T	2
L21S	2.27
L21K	1.19
L21P	1.93
A23K	1.29
A23R	2.45
A23Q	2.06
A23H	2.52
A23F	1.59
A23G	2.75
A23M	2.25
A23T	2.04
A23Y	2.71
A23D	1.42

Variants of: B3
Test: as above
Conditions: c terminus: a fixed tail appended

Variant	protein stability index
P12Q	3.11
P12G	2.9
P12R	2.36
N23G	2.92
N23D	3.81
N23W	2.09
N23S	3.18
A10Y	2.56
A10K	3.05
A10V	2.45
A10D	3.34
A10W	2.22
P4N	3.26
P4F	2.73
P4D	3.71
K7R	2.72
K7Y	2.72
K7V	3.45
K7P	4.04
K7W	2.84
C6R	4.05
C6K	4.31
C6L	3.86

Variant	protein stability index
C6P	4.09
C6A	4.55
C6S	4.39
C6T	4.44
R9F	3.11
R9E	3.62
T2L	2.79
V5F	2.04
V5G	3.7
T20R	2.93
T20M	2.67
T20C	3
T20W	2.09
A13L	2.31
A13W	1.81
A13T	2.75
D8L	2.36
D8S	2.45
L15A	3.35
L15R	3.33
L15H	3.14
L15G	3.87
L15F	2.66

Variant	protein stability index
L15I	3
L24A	3.89
L24D	4.37
L24M	2.8
L24K	3.37
C3G	4.3
C3F	3.79
C3H	3.84
C3Y	3.24
D14K	2.72
D14T	2.77
N18R	2.71
N18G	3.03
N18T	2.86
N18V	2.62
H19A	2.86
H19S	3.09
H19E	3.79
H19Y	3.13
H19R	3.14
S11Y	3.11
S11L	3.07
T17H	3.66

Variant	protein stability index
T17Q	3.28
T17N	3.09
T17K	3.02
L21G	3.3
L21S	3.42
L21C	4.64
N22Y	2.38
N22P	2.44
N22Q	3.63
N22R	1.98
R16F	2.42
R16L	3.04
R16M	2.72
R16Q	3.39
R16C	3.89
R16P	3.11
R16V	3.07
R16H	3.17
P1L	2.62
P1C	3.87
P1Y	2.47
